Results reported in the supplement of paper PMC11780869.

Tested on: Bacillus subtilis
Assay: cleaved RNA product abundance (RNA/gDNA barcode ratio) relative to median wild-type variant (ratio to wild type); higher = more accumulation of the downstream cleavage product
Conditions: cleavage site: cggR-gapA (positions -7 to +36 mutated)
Procedure, shortened: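 The B. subtilis chromosome carried reporter mRNAs, truncated aprE or tetM, containing barcoded RNase Y cleavage-site windows mutagenized using oligos with a 9% error rate. After growth in LB at 37°C from OD600 0.0003 to 0.3, cleaved RNA was gel-selected, reverse transcribed and barcode-sequenced next to genomic DNA barcodes, with UMI collapsing. Each construct's RNA:gDNA barcode ratio was scaled to the median construct with the unmutated site. That scaled ratio is reported as cleaved product abundance.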

[1] = experiment (reporter, strain, medium): exp 2b: truncated aprE reporter, strain BJT200
[2] = experiment (reporter, strain, medium): exp 4a: truncated aprE reporter, strain BJT201 with 2% xylose (RNase J1 expressed)
[3] = experiment (reporter, strain, medium): exp 6: tetM reporter, strain 168

Row | Sequence | cleaved RNA product abundance [1] | cleaved RNA product abundance [2] | cleaved RNA product abundance [3]
1 | ACAGACGAAGGAGCCGCAAAGAAGTTATTAACGGATGAATAAACCCTCAATATAAATATCTCTCACTTATTTAAA | 0.0962 | 0.12 | –
2 | ACAGACGAAGGAGCCGCAAAGAAGTTATTAACGGATGAATAACCCCTCAATATAAATATCTCTCACTTATTTAAA | – | 0.0802 | –
3 | ACAGACGAAGGAGCCGCAAAGAAGTTATTAACGGATGAATAATACCTCAATATAAATATCTCTCACTTATTTAAA | 0.0908 | 0.136 | –
4 | ACAGACGAAGGAGCCGCAAAGAAGTTATTAACGGATGAATAATCACTCAATATAAATATCTCTCACTTATTTAAA | 0.0895 | 0.106 | –
5 | ACAGACGAAGGAGCCGCAAAGAAGTTATTAACGGATGAATAATCCATCAATATAAATATCTCTCACTTATTTAAA | 0.138 | 0.233 | –
6 | ACAGACGAAGGAGCCGCAAAGAAGTTATTAACGGATGAATAATCCCACAATATAAATATCTCTCACTTATTTAAA | – | 0.133 | –
7 | ACAGACGAAGGAGCCGCAAAGAAGTTATTAACGGATGAATAATCCCCCAATATAAATATCTCTCACTTATTTAAA | – | 0.173 | –
8 | ACAGACGAAGGAGCCGCAAAGAAGTTATTAACGGATGAATAATCCCGCAATATAAATATCTCTCACTTATTTAAA | – | 0.392 | –
9 | ACAGACGAAGGAGCCGCAAAGAAGTTATTAACGGATGAATAATCCCTAAATATAAATATCTCTCACTTATTTAAA | – | 0.225 | 0.194
10 | ACAGACGAAGGAGCCGCAAAGAAGTTATTAACGGATGAATAATCCCTCAAAATAAATATCTCTCACTTATTTAAA | 0.105 | 0.158 | –
11 | ACAGACGAAGGAGCCGCAAAGAAGTTATTAACGGATGAATAATCCCTCAACATAAATATCTCTCACTTATTTAAA | – | 0.172 | –
12 | ACAGACGAAGGAGCCGCAAAGAAGTTATTAACGGATGAATAATCCCTCAATAAAAATATCTCTCACTTATTTAAA | – | 0.08 | –
13 | ACAGACGAAGGAGCCGCAAAGAAGTTATTAACGGATGAATAATCCCTCAATACAAATATCTCTCACTTATTTAAA | – | 0.0789 | –
14 | ACAGACGAAGGAGCCGCAAAGAAGTTATTAACGGATGAATAATCCCTCAATATAAAAATCTCTCACTTATTTAAA | 0.156 | 0.116 | –
15 | ACAGACGAAGGAGCCGCAAAGAAGTTATTAACGGATGAATAATCCCTCAATATAAATATCTCTCACTTATTAAAG | – | 0.172 | –
16 | ACAGACGAAGGAGCCGCAAAGAAGTTATTAACGGATGAATAATCCCTCAATATAAATATCTCTCACTTATTTAAA | 0.133 | 0.177 | 0.195
17 | ACAGACGAAGGAGCCGCAAAGAAGTTATTAACGGATGAATAATCCCTCAATATAAATCTCTCTCACTTATTTAAA | 0.108 | – | –
18 | ACAGACGAAGGAGCCGCAAAGAAGTTATTAACGGATGAATAATCCCTCAATATAAATGTCTCTCACTTATTTAAA | – | 0.0543 | –
19 | ACAGACGAAGGAGCCGCAAAGAAGTTATTAACGGATGAATAATCCCTCAATATACATATCTCTCACTTATTTAAA | – | 0.231 | –

Row | Sequence | cleaved RNA product abundance [1] | cleaved RNA product abundance [2] | cleaved RNA product abundance [3]
20 | ACAGACGAAGGAGCCGCAAAGAAGTTATTAACGGATGAATAATCCCTCAATATAGATATCTCTCACTTATTTAAA | – | 0.158 | –
21 | ACAGACGAAGGAGCCGCAAAGAAGTTATTAACGGATGAATAATCCCTCAATATATATATCTCTCACTTATTTAAA | 0.158 | 0.152 | –
22 | ACAGACGAAGGAGCCGCAAAGAAGTTATTAACGGATGAATAATCCCTCAATATTAATATCTCTCACTTATTTAAA | 0.0877 | 0.0699 | –
23 | ACAGACGAAGGAGCCGCAAAGAAGTTATTAACGGATGAATAATCCCTCAATCTAAATATCTCTCACTTATTTAAA | – | 0.102 | –
24 | ACAGACGAAGGAGCCGCAAAGAAGTTATTAACGGATGAATAATCCCTCATTATAAATATCTCTCACTTATTTAAA | 0.128 | 0.141 | –
25 | ACAGACGAAGGAGCCGCAAAGAAGTTATTAACGGATGAATAATCCCTCCATATAAATATCTCTCACTTATTTAAA | – | 0.129 | –
26 | ACAGACGAAGGAGCCGCAAAGAAGTTATTAACGGATGAATAATCCCTCTATATAAATATCTCTCACTTATTTAAA | – | 0.133 | –
27 | ACAGACGAAGGAGCCGCAAAGAAGTTATTAACGGATGAATAATCCCTGAATATAAATATCTCTCACTTATTTAAA | – | 0.107 | –
28 | ACAGACGAAGGAGCCGCAAAGAAGTTATTAACGGATGAATAATCCCTTAATATAAATATCTCTCACTTATTTAAA | 0.98 | 0.671 | –
29 | ACAGACGAAGGAGCCGCAAAGAAGTTATTAACGGATGAATAATCCTTCAATATAAATATCTCTCACTTATTTAAA | – | 0.223 | –
30 | ACAGACGAAGGAGCCGCAAAGAAGTTATTAACGGATGAATAATCTCTCAATATAAATATCTCTCACTTATTTAAA | 0.0813 | 0.183 | –
31 | ACAGACGAAGGAGCCGCAAAGAAGTTATTAACGGATGAATAATTCCTCAATATAAATATCTCTCACTTATTTAAA | – | 0.152 | –
32 | ACAGACGAAGGAGCCGCAAAGAAGTTATTAACGGATGAATACTCCCTCAATATAAATATCTCTCACTTATTTAAA | – | 0.133 | –
33 | ACAGACGAAGGAGCCGCAAAGAAGTTATTAACGGATGAATAGTCCCTCAATATAAATATCTCTCACTTATTTAAA | – | 0.174 | –
34 | ACAGACGAAGGAGCCGCAAAGAAGTTATTAACGGATGAATATTCCCTCAATATAAATATCTCTCACTTATTTAAA | – | 0.138 | –
35 | ACAGACGAAGGAGCCGCAAAGAAGTTATTAACGGATGAATTATCCCTCAATATAAATATCTCTCACTTATTTAAA | 0.12 | 0.179 | –
36 | ACAGACGAAGGAGCCGCAAAGAAGTTATTAACGGATGGATAATCCCTCAATATAAATATCTCTCACTTATTTAAA | – | 0.152 | –
37 | ACAGACGAAGGAGCCGCAAAGAAGTTATTAACGGATGTATAATCCCTCAATATAAATATCTCTCACTTATTTAAA | 0.124 | 0.147 | –
38 | ACAGACGAAGGAGCCGCAAAGAAGTTATTAACGGATTAATAATCCCTCAATATAAATATCTCTCACTTATTTAAA | 0.121 | 0.141 | –

Row | Sequence | cleaved RNA product abundance [1] | cleaved RNA product abundance [2] | cleaved RNA product abundance [3]
39 | ACAGACGAAGGAGCCGCAAAGAAGTTATTAACGGCTGAATAATCCCTCAATATAAATATCTCTCACTTATTTAAA | 0.0646 | 0.0788 | –
40 | ACAGACGAAGGAGCCGCAAAGAAGTTATTAACGGTTGAATAATCCCTCAATATAAATATCTCTCACTTATTTAAA | 0.0654 | 0.113 | –
41 | ACAGACGAAGGAGCCGCAAAGAAGTTATTAACGTATGAATAATCCCTCAATATAAATATCTCTCACTTATTTAAA | 0.098 | 0.0853 | –
42 | ACAGACGAAGGAGCCGCAAAGAAGTTATTAACTGATGAATAATCCCTCAATATAAATATCTCTCACTTATTTAAA | 0.0892 | 0.118 | –
43 | ACAGACGAAGGAGCCGCAAAGAAGTTATTAAGAAATGAATAATCCCTCAATATAAATATCTCTCACTTATTTAAA | 0.0992 | 0.1 | –
44 | ACAGACGAAGGAGCCGCAAAGAAGTTATTAAGACATGAATAATCCCTCAATATAAATATCTCTCACTTATTTAAA | 0.111 | 0.132 | –
45 | ACAGACGAAGGAGCCGCAAAGAAGTTATTAAGAGAAGAATAAACCCTCAATATAAATATCTCTCACTTATTTAAA | – | 0.0499 | –
46 | ACAGACGAAGGAGCCGCAAAGAAGTTATTAAGAGAAGAATAATCCCTCAATATAAATATCTCTCACTTATTTAAA | 0.0791 | 0.101 | 0.107
47 | ACAGACGAAGGAGCCGCAAAGAAGTTATTAAGAGACGAATAATCCCTCAATATAAATATCTCTCACTTATTTAAA | 0.0781 | 0.0728 | –
48 | ACAGACGAAGGAGCCGCAAAGAAGTTATTAAGAGAGGAATAATCCCTCAATATAAATATCTCTCACTTATTTAAA | – | 0.199 | –
49 | ACAGACGAAGGAGCCGCAAAGAAGTTATTAAGAGATAAAAAATCCCTCAATATAAATATCTCTCACTTATTTAAA | – | 0.139 | –
50 | ACAGACGAAGGAGCCGCAAAGAAGTTATTAAGAGATAAATAATCCCTCAATATAAATATCTCTCACTTATTTAAA | 0.0926 | 0.0932 | –
51 | ACAGACGAAGGAGCCGCAAAGAAGTTATTAAGAGATAAATAATTCCTCAATATAAATATCTCTCACTTATTTAAA | 0.102 | – | –
52 | ACAGACGAAGGAGCCGCAAAGAAGTTATTAAGAGATCAATAATCCCTCAATATAAATATCTCTCACTTATTTAAA | 0.0924 | 0.0785 | –
53 | ACAGACGAAGGAGCCGCAAAGAAGTTATTAAGAGATGAAAAATACCTCAATATAAATATCTCTCACTTATTTAAA | – | 0.146 | –
54 | ACAGACGAAGGAGCCGCAAAGAAGTTATTAAGAGATGAAAAATCCCTCAATATAAATATCTCTCACTTATTTAAA | 0.119 | 0.18 | –
55 | ACAGACGAAGGAGCCGCAAAGAAGTTATTAAGAGATGAACAATCCCTCAATATAAATATCTCTCACTTATTTAAA | 0.0784 | 0.205 | –
56 | ACAGACGAAGGAGCCGCAAAGAAGTTATTAAGAGATGAATAAACCCTCAATATAAATATCTCTCACTTATTTAAA | 0.148 | 0.0846 | 0.115
57 | ACAGACGAAGGAGCCGCAAAGAAGTTATTAAGAGATGAATAACCCCTCAATATAAATATCTCTCACTTATTTAAA | – | 0.147 | –
